Laboratory results published in US20180273599A1.
Values belong to the binder of their own block, whether it stands above or below them.

Experiments:
[1] = target: T1, betaglycan on LβT2 mouse pituitary gonadotrope cells (mouse) (UniProt O88393); test: cell-based or functional assay
T1 sequence (looked up): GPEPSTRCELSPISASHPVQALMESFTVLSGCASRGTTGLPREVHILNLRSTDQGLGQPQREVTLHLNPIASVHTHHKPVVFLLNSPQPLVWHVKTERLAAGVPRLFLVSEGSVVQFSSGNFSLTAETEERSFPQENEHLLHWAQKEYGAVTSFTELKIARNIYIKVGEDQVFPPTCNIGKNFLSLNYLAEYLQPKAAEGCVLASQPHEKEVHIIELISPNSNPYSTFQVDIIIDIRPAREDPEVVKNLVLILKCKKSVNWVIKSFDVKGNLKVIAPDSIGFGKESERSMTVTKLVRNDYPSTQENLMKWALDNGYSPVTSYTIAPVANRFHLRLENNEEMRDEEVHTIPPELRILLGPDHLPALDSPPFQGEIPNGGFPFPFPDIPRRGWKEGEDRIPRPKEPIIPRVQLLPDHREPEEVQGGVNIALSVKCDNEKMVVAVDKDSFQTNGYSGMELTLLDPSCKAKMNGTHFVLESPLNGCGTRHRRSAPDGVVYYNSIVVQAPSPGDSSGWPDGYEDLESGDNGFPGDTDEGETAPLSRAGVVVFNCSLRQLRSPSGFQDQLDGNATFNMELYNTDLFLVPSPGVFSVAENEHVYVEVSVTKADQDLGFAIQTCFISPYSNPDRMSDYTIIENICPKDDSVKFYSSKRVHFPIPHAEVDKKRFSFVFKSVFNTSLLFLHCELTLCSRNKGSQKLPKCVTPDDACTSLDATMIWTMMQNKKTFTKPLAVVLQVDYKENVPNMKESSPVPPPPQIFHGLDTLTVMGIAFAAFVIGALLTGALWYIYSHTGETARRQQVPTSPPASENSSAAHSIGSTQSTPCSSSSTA

[2] = target: T2, betaglycan on primary rat pituitary cells (rat) (UniProt P26342); test: cell-based or functional assay
T2 sequence (looked up): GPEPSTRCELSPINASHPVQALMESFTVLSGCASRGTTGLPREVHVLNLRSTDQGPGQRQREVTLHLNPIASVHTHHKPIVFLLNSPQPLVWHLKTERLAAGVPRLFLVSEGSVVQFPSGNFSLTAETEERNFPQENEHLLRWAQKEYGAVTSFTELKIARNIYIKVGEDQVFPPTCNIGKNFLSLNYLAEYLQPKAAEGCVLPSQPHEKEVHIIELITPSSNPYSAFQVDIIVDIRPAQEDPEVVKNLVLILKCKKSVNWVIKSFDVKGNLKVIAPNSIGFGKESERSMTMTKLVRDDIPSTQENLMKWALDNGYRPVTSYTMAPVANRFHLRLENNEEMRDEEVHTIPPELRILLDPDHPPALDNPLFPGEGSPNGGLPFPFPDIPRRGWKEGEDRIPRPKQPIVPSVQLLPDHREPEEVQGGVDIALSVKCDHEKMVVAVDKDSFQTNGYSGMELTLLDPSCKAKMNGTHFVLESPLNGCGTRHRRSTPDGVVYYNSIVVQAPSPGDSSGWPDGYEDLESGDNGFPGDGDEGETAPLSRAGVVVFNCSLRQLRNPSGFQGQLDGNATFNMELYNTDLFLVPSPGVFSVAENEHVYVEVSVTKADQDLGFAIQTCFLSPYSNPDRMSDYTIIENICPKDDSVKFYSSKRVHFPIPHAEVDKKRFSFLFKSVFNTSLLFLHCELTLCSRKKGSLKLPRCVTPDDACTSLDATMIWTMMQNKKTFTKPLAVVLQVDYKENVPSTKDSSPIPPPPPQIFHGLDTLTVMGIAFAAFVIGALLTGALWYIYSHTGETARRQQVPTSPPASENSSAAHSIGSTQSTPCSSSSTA

type I receptor (ALK4) = target: T3, type I receptor (ALK4) (UniProt P36896); test: cell-based or functional assay
T3 sequence (looked up): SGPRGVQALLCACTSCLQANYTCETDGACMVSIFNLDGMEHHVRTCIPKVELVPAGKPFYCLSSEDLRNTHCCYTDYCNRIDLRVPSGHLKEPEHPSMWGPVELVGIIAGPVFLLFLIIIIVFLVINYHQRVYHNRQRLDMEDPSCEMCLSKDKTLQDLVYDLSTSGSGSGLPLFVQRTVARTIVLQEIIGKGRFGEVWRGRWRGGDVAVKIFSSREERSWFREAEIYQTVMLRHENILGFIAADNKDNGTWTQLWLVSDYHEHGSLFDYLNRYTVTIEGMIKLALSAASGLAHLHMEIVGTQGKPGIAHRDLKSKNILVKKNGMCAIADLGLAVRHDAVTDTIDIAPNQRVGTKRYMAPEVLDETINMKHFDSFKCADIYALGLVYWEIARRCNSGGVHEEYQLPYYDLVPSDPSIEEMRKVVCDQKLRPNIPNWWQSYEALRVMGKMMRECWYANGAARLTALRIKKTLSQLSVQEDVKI

[3] = target: T4, HIS-tagged inhibin α-subunit prodomain (human) (UniProt P05111); test: IMAC (Ni-NTA) co-purification from HEK293T conditioned medium; Western blot and ELISA
T4 sequence: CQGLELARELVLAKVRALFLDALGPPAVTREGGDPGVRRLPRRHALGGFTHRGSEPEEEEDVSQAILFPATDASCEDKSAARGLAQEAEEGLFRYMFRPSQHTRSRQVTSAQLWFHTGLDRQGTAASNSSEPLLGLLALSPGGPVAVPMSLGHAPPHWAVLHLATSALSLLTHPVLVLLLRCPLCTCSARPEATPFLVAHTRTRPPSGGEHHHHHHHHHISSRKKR

IC50, FSH release by LβT2 pituitary gonadotrope cells [1]: 0.045 nM
potency in FSH release by LβT2 cells, against mature inhibin A [1]: 22 fold
IC50, decrease in FSH release by primary rat pituitary cells [2]: 0.075 nM
B1: Pro-inhibin A (M418A) (ligand)
chain 1: CQGLELARELVLAKVRALFLDALGPPAVTREGGDPGVRRLPRRHALGGFTHRGSEPEEEEDVSQAILFPATDASCEDKSAARGLAQEAEEGLFRYMFRPSQHTRSRQVTSAQLWFHTGLDRQGTAASNSSEPLLGLLALSPGGPVAVPMSLGHAPPHWAVLHLATSALSLLTHPVLVLLLRCPLCTCSARPEATPFLVAHTRTRPPSGGEHHHHHHHHHISSRKKRSVSSTPLMSWPWSPSALRLLQRPPEEPAAHANCHRVALNISFQELGWERWIVYPPSFIFHYCHGGCGLHIPPNLSLPVPGAPPTPAQPYSLLPGAQPCCAALPGTMRPLHVRTTSDGGYSFKYETVPNLLTQHCACI
chain 2: DYKDDDDKSPTPGSEGHSAAPDCPSCALAALPKDVPNSQPEMVEAVKKHILNMLHLKKRPDVTQPVPKAALLNAIRKLHVGKVGENGYVEIEDDIGRRAEMNELMEQTSEIITFAESGTARKTLHFEISKEGSDLSVVERAEVWLFLKVPKANRTRTKVTIRLFQQQKHPQGSLDTGEEAEEVGLKGERSELLLSEKVVDARKSTWHVFPVSSSIQRLLDQGKSSLDVRIACEQCQESGASLVLLGKKKKKEEEGEGKKKGGGEGGAGADEEKEQSHRPFLMLQARQSEDHPHISSRKKRSVSSGLECDGKVNICCKKQFFVSFKDIGWNDWIIAPSGYHANYCEGECPSHIAGTSGSSLSFHSTVINHYRMRGHSPFANLKSCCVPTKLRPMSMLYYDDGQNIIKKDIQNAIVEECGCS

activin response, activin-responsive luciferase reporter (A3-Luc) in HEK293 cells, against inhibin A-SCUT without M418A (type I receptor (ALK4)): 100 fold lower
B2: activin A (M418A), residual in the inhibin A-SCUT (M418A) preparation (ligand)
chain: B1 chain 2

IC50, FSH release by LβT2 pituitary gonadotrope cells [1]: 1 nM
IC50, decrease in FSH release by primary rat pituitary cells [2]: 0.065 nM
B3: HPLC-purified mature inhibin A (ligand)
chain 1: STPLMSWPWSPSALRLLQRPPEEPAAHANCHRVALNISFQELGWERWIVYPPSFIFHYCHGGCGLHIPPNLSLPVPGAPPTPAQPYSLLPGAQPCCAALPGTMRPLHVRTTSDGGYSFKYETVPNLLTQHCACI
chain 2: GLECDGKVNICCKKQFFVSFKDIGWNDWIIAPSGYHANYCEGECPSHIAGTSGSSLSFHSTVINHYRMRGHSPFANLKSCCVPTKLRPMSMLYYDDGQNIIKKDIQNMIVEECGCS

percent of mature inhibin A co-purified with the HIS-tagged prodomain [3]: > 90%
B4: mature inhibin A (M418A) (ligand)
chain 1: SVSSTPLMSWPWSPSALRLLQRPPEEPAAHANCHRVALNISFQELGWERWIVYPPSFIFHYCHGGCGLHIPPNLSLPVPGAPPTPAQPYSLLPGAQPCCAALPGTMRPLHVRTTSDGGYSFKYETVPNLLTQHCACI
chain 2: SVSSGLECDGKVNICCKKQFFVSFKDIGWNDWIIAPSGYHANYCEGECPSHIAGTSGSSLSFHSTVINHYRMRGHSPFANLKSCCVPTKLRPMSMLYYDDGQNIIKKDIQNAIVEECGCS
